Among the data in publication PMC7424196 (iScience, 2020) are Kd, koff and kon values, retold here.

The target of test [1] is T1, γc extracellular domain (UniProt P34902 23-263).
T1 sequence (looked up): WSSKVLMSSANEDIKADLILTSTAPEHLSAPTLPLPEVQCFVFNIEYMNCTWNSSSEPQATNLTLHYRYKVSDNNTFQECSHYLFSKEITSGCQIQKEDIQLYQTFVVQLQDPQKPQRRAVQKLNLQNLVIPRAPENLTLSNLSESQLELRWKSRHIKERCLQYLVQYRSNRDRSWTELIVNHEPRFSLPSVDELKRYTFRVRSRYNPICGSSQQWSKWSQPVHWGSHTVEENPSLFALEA
As to the kind of experiment: SPR.

Test [2] deals with T1, γc extracellular domain. Put plainly: SPR. This is another data set of the same source. On the technique in general: Surface plasmon resonance follows binding to a sensor surface in real time, without labels.

Like-named read-outs stand apart in the source and are kept apart here.

B1: IL-7Rα extracellular domain (domain or fragment, UniProt P16872 21-239, looked up)
chain: ESGNAQDGDLEDADADDHSFWCHSQLEVDGSQHLLTCAFNDSDINTANLEFQICGALLRVKCLTLNKLQDIYFIKTSEFLLIGSSNICVKLGQKNLTCKNMAINTIVKAEAPSDLKVVYRKEANDFLVTFNAPHLKKKYLKKVKHDVAYRPARGESNWTHVSLFHTRTTIPQRKLRPKAMYEIKVRSIPHNDYFKGFWSEWSPSSTFETPEPKNQGGWD
A word on the Kd: it is a measure of binding affinity in units of concentration. As a reminder, the koff is the first-order rate constant of dissociation. Low readings indicate a long-lived complex, high ones a short-lived complex. A word on the kon: it is a measure of how fast the partners come together. Low readings indicate slower complex formation, high ones faster complex formation. In the test with γc extracellular domain [1], B1 returned a Kd of 0.0373 ± 0.0004 µM, a koff of 0.000221 s⁻¹ and a kon of 5930 M⁻¹ s⁻¹.

B2: IL-2Rβ extracellular domain (domain or fragment, UniProt P16297 27-240, looked up)
chain: AVKNCSHLECFYNSRANVSCMWSHEEALNVTTCHVHAKSNLRHWNKTCELTLVRQASWACNLILGSFPESQSLTSVDLLDINVVCWEEKGWRRVKTCDFHPFDNLRLVAPHSLQVLHIDTQRCNISWKVSQVSHYIEPYLEFEARRRLLGHSWEDASVLSLKQRQQWLFLEMLIPSTSYEVQVRVKAQRNNTGTWSPWSQPLTFRTRPADPMKE
B2 returned a Kd with γc extracellular domain [2] of 577 ± 40 µM.
